# From patent US20180016318A1 (Eli Lilly, published 2018)
# Starred links: 1 amine or outer side, 2 acyl side, 3 side chain; linkers in the order of their positions; H or OH if unused. Non-standard residues stand in square brackets, D forms with d. Groups on a side chain read outwards from the residue. No end group written: not given here. *: point of attachment. C20 diacid = O=C(O)CCCCCCCCCCCCCCCCCCC(=O)*; C18 diacid = O=C(O)CCCCCCCCCCCCCCCCC(=O)*; γGlu = O=C(O)[C@H](CCC(=O)[*:2])N[*:1]; NMeI = CC[C@H](C)[C@H](NC)C(=O)O; AEEA = NCCOCCOCC(=O)O
# T1: human CRHR1 (corticotropin releasing hormone receptor-1) (human, UniProt P34998 24-415)
# T1 sequence (looked up): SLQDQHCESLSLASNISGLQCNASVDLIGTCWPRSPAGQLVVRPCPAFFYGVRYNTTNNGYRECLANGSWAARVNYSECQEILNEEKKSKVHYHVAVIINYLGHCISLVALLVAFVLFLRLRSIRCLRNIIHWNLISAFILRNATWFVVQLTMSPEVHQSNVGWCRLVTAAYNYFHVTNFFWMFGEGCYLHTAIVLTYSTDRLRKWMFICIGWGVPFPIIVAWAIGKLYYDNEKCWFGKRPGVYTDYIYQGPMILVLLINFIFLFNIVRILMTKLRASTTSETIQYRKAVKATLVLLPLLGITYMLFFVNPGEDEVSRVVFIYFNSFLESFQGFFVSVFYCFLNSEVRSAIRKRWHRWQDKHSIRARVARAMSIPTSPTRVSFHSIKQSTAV
# B1: Example 6 (SEQ ID NO: 6) (peptide)
# peptide: [NMeI]VLSLDVPIGLLQILLEQEKQEKEKQQAK([AEEA-AEEA-γGlu-γGlu-C20 diacid])TNAEILAQV-NH2
# modifications: N-terminus assumed
# SMILES: CC[C@H](C)[C@H](NC)C(=O)N[C@H](C(=O)N[C@@H](CC(C)C)C(=O)N[C@@H](CO)C(=O)N[C@@H](CC(C)C)C(=O)N[C@@H](CC(=O)O)C(=O)N[C@H](C(=O)N1CCC[C@H]1C(=O)N[C@H](C(=O)NCC(=O)N[C@@H](CC(C)C)C(=O)N[C@@H](CC(C)C)C(=O)N[C@@H](CCC(N)=O)C(=O)N[C@H](C(=O)N[C@@H](CC(C)C)C(=O)N[C@@H](CC(C)C)C(=O)N[C@@H](CCC(=O)O)C(=O)N[C@@H](CCC(N)=O)C(=O)N[C@@H](CCC(=O)O)C(=O)N[C@@H](CCCCN)C(=O)N[C@@H](CCC(N)=O)C(=O)N[C@@H](CCC(=O)O)C(=O)N[C@@H](CCCCN)C(=O)N[C@@H](CCC(=O)O)C(=O)N[C@@H](CCCCN)C(=O)N[C@@H](CCC(N)=O)C(=O)N[C@@H](CCC(N)=O)C(=O)N[C@@H](C)C(=O)N[C@@H](CCCCNC(=O)COCCOCCNC(=O)COCCOCCNC(=O)CC[C@H](NC(=O)CC[C@H](NC(=O)CCCCCCCCCCCCCCCCCCC(=O)O)C(=O)O)C(=O)O)C(=O)N[C@H](C(=O)N[C@@H](CC(N)=O)C(=O)N[C@@H](C)C(=O)N[C@@H](CCC(=O)O)C(=O)N[C@H](C(=O)N[C@@H](CC(C)C)C(=O)N[C@@H](C)C(=O)N[C@@H](CCC(N)=O)C(=O)N[C@H](C(N)=O)C(C)C)[C@@H](C)CC)[C@@H](C)O)[C@@H](C)CC)[C@@H](C)CC)C(C)C)C(C)C
# B2: Example 1 (SEQ ID NO: 1) (peptide)
# peptide: Ac-IVLSLDVPIGLLQILLEQEKQEKEKQQAK([AEEA-AEEA-γGlu-γGlu-C18 diacid])TNAQILAQV-NH2
# SMILES: CC[C@H](C)[C@H](NC(C)=O)C(=O)N[C@H](C(=O)N[C@@H](CC(C)C)C(=O)N[C@@H](CO)C(=O)N[C@@H](CC(C)C)C(=O)N[C@@H](CC(=O)O)C(=O)N[C@H](C(=O)N1CCC[C@H]1C(=O)N[C@H](C(=O)NCC(=O)N[C@@H](CC(C)C)C(=O)N[C@@H](CC(C)C)C(=O)N[C@@H](CCC(N)=O)C(=O)N[C@H](C(=O)N[C@@H](CC(C)C)C(=O)N[C@@H](CC(C)C)C(=O)N[C@@H](CCC(=O)O)C(=O)N[C@@H](CCC(N)=O)C(=O)N[C@@H](CCC(=O)O)C(=O)N[C@@H](CCCCN)C(=O)N[C@@H](CCC(N)=O)C(=O)N[C@@H](CCC(=O)O)C(=O)N[C@@H](CCCCN)C(=O)N[C@@H](CCC(=O)O)C(=O)N[C@@H](CCCCN)C(=O)N[C@@H](CCC(N)=O)C(=O)N[C@@H](CCC(N)=O)C(=O)N[C@@H](C)C(=O)N[C@@H](CCCCNC(=O)COCCOCCNC(=O)COCCOCCNC(=O)CC[C@H](NC(=O)CC[C@H](NC(=O)CCCCCCCCCCCCCCCCC(=O)O)C(=O)O)C(=O)O)C(=O)N[C@H](C(=O)N[C@@H](CC(N)=O)C(=O)N[C@@H](C)C(=O)N[C@@H](CCC(N)=O)C(=O)N[C@H](C(=O)N[C@@H](CC(C)C)C(=O)N[C@@H](C)C(=O)N[C@@H](CCC(N)=O)C(=O)N[C@H](C(N)=O)C(C)C)[C@@H](C)CC)[C@@H](C)O)[C@@H](C)CC)[C@@H](C)CC)C(C)C)C(C)C
# B3: Example 7 (SEQ ID NO: 7) (peptide)
# peptide: [NMeI]VTSLDVPIGLLQILIEQEKQEKEKQQAK([AEEA-AEEA-γGlu-γGlu-C20 diacid])TNAEILAQV-NH2
# modifications: N-terminus assumed
# SMILES: CC[C@H](C)[C@H](NC)C(=O)N[C@H](C(=O)N[C@H](C(=O)N[C@@H](CO)C(=O)N[C@@H](CC(C)C)C(=O)N[C@@H](CC(=O)O)C(=O)N[C@H](C(=O)N1CCC[C@H]1C(=O)N[C@H](C(=O)NCC(=O)N[C@@H](CC(C)C)C(=O)N[C@@H](CC(C)C)C(=O)N[C@@H](CCC(N)=O)C(=O)N[C@H](C(=O)N[C@@H](CC(C)C)C(=O)N[C@H](C(=O)N[C@@H](CCC(=O)O)C(=O)N[C@@H](CCC(N)=O)C(=O)N[C@@H](CCC(=O)O)C(=O)N[C@@H](CCCCN)C(=O)N[C@@H](CCC(N)=O)C(=O)N[C@@H](CCC(=O)O)C(=O)N[C@@H](CCCCN)C(=O)N[C@@H](CCC(=O)O)C(=O)N[C@@H](CCCCN)C(=O)N[C@@H](CCC(N)=O)C(=O)N[C@@H](CCC(N)=O)C(=O)N[C@@H](C)C(=O)N[C@@H](CCCCNC(=O)COCCOCCNC(=O)COCCOCCNC(=O)CC[C@H](NC(=O)CC[C@H](NC(=O)CCCCCCCCCCCCCCCCCCC(=O)O)C(=O)O)C(=O)O)C(=O)N[C@H](C(=O)N[C@@H](CC(N)=O)C(=O)N[C@@H](C)C(=O)N[C@@H](CCC(=O)O)C(=O)N[C@H](C(=O)N[C@@H](CC(C)C)C(=O)N[C@@H](C)C(=O)N[C@@H](CCC(N)=O)C(=O)N[C@H](C(N)=O)C(C)C)[C@@H](C)CC)[C@@H](C)O)[C@@H](C)CC)[C@@H](C)CC)[C@@H](C)CC)C(C)C)[C@@H](C)O)C(C)C
# B4: Example 3 (SEQ ID NO: 3) (peptide)
# peptide: [NMeI]VLSLDVPIGLLQILLEQEKQEKEKQQAK([AEEA-AEEA-γGlu-γGlu-C18 diacid])TNAQILAQV-NH2
# modifications: N-terminus assumed
# SMILES: CC[C@H](C)[C@H](NC)C(=O)N[C@H](C(=O)N[C@@H](CC(C)C)C(=O)N[C@@H](CO)C(=O)N[C@@H](CC(C)C)C(=O)N[C@@H](CC(=O)O)C(=O)N[C@H](C(=O)N1CCC[C@H]1C(=O)N[C@H](C(=O)NCC(=O)N[C@@H](CC(C)C)C(=O)N[C@@H](CC(C)C)C(=O)N[C@@H](CCC(N)=O)C(=O)N[C@H](C(=O)N[C@@H](CC(C)C)C(=O)N[C@@H](CC(C)C)C(=O)N[C@@H](CCC(=O)O)C(=O)N[C@@H](CCC(N)=O)C(=O)N[C@@H](CCC(=O)O)C(=O)N[C@@H](CCCCN)C(=O)N[C@@H](CCC(N)=O)C(=O)N[C@@H](CCC(=O)O)C(=O)N[C@@H](CCCCN)C(=O)N[C@@H](CCC(=O)O)C(=O)N[C@@H](CCCCN)C(=O)N[C@@H](CCC(N)=O)C(=O)N[C@@H](CCC(N)=O)C(=O)N[C@@H](C)C(=O)N[C@@H](CCCCNC(=O)COCCOCCNC(=O)COCCOCCNC(=O)CC[C@H](NC(=O)CC[C@H](NC(=O)CCCCCCCCCCCCCCCCC(=O)O)C(=O)O)C(=O)O)C(=O)N[C@H](C(=O)N[C@@H](CC(N)=O)C(=O)N[C@@H](C)C(=O)N[C@@H](CCC(N)=O)C(=O)N[C@H](C(=O)N[C@@H](CC(C)C)C(=O)N[C@@H](C)C(=O)N[C@@H](CCC(N)=O)C(=O)N[C@H](C(N)=O)C(C)C)[C@@H](C)CC)[C@@H](C)O)[C@@H](C)CC)[C@@H](C)CC)C(C)C)C(C)C
# Biological target: human CRHR1 (corticotropin releasing hormone receptor-1) (human) (UniProt P34998)
# Assay: cell-based or functional assay
row,"Average EC50 (nM), cell-based cAMP assay, Y79 cells with endogenous human CRHR1",Molecule
1,7.3 nM,human UCN1 (urocortin-1) (from UniProt P55089 83-122) (ligand)

# Biological target: T1, human CRHR1 (corticotropin releasing …)
# Assay: cell-based or functional assay
row,"Average EC50 (nM), cell-based cAMP assay, Y79 cells with endogenous human CRHR1",Molecule
1,> 100000 nM,IVLSLDVPIGLLQILLEQARARAAREQATTNARILARV-NH2 (ligand) [human UCN2 (urocortin-2)]
2,> 100000 nM,B1
3,> 10000 nM,Ac-IVLSLDVPIGLLQILLEQEKQEKEKQQAK([AEEA-AEEA-γGlu-γGlu-C20 diacid])TNAQILAQV-NH2 [Example 2 (SEQ ID NO: 2)]
4,~10000 nM,B2
5,~100000 nM,B3
6,33900 nM,[NMeI]VTSLDVPIGLLQILLEQEKQEKEKQQAK([AEEA-AEEA-γGlu-γGlu-C20 diacid])TNAEILAQV-NH2 [Example 5 (SEQ ID NO: 5)]
7,> 100000 nM,[NMeI]VLSLDVPIGLLQILLEQEKQEKEKQQAK([AEEA-AEEA-γGlu-γGlu-C20 diacid])TNAQILAQV-NH2 [Example 4 (SEQ ID NO: 4)]
8,> 100000 nM,B4
